Source: publication PMC12749725 (Nature Communications, 2025)
Substitutions are numbered along the chain they refer to. Names may count otherwise. “And” between values parts separate entries of the source, which are not always exact repeats. Equal values may be shown once.

Key:
SEC-MALS = target: the molecule itself; assay: SEC-MALS
[1] = target: T1, BAI3_eCUB^253 (C-terminal extended CUB domain of BAI3, aa. 25-253) (human, UniProt O60242 25-253); assay: ITC
T1 sequence (looked up): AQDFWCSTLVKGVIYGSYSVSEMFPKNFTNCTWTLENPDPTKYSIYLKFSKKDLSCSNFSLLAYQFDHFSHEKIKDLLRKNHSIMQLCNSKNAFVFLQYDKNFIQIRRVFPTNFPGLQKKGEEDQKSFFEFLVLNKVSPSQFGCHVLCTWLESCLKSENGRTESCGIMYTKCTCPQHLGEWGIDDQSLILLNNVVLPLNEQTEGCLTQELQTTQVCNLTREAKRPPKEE

[2] = target: T2, BAI3 extracellular domain (ECD) (human, UniProt O60242 25-880); assay: ITC
T2 sequence (looked up): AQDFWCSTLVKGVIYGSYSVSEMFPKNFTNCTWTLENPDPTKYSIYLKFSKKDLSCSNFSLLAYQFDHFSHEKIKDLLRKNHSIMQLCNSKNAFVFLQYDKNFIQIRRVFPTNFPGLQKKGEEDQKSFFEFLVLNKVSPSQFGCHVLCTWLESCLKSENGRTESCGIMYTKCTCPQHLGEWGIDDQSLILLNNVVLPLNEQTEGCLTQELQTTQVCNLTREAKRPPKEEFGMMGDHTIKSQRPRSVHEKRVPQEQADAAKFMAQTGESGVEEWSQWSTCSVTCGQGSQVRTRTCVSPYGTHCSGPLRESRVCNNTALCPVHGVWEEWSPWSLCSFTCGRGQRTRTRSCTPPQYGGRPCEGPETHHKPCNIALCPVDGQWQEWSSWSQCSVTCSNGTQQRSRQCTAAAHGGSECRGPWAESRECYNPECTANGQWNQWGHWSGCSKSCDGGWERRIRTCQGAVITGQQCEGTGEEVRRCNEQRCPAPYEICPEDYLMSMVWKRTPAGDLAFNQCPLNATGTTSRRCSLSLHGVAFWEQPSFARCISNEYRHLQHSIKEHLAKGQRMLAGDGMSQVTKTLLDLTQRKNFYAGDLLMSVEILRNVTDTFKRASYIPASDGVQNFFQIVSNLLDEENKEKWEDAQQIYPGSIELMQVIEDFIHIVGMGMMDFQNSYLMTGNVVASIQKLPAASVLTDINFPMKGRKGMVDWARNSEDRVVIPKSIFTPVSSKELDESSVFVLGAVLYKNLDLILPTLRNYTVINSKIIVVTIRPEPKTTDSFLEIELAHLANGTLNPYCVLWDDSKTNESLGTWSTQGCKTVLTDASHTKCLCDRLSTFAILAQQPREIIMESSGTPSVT

SEC [3] = target: the molecule itself; assay: SEC
SEC [4] = target: the molecule itself; assay: SEC; remark: listed apart in the source

B1: C1ql1_gC1q (globular C1q domain of mouse C1ql1), wild type (domain or fragment)
chain: ATYTTVPRVAFYAGLKNPHEGYEVLKFDDVVTNLGNNYDAASGKFTCNIPGTYFFTYHVLMRGGDGTSMWADLCKNGQVRASAIAQDADQNYDYASNSVILHLDAGDEVFIKLDGGKAHGGNSNKYSTFSGFIIYSD
For B1, the “stoichiometry N” value (SEC-MALS) was 6 and 3, the Kd [1] was about 150 nM and the “stoichiometry N” value [1] was 3 eCUB molecules per gC1q trimer. It also gave a Kd [2] of about 1100 nM.

B2: C1ql1_gC1q D208N (domain or fragment, mouse)
chain: TTVPRVAFYAGLKNPHEGYEVLKFDDVVTNLGNNYDAASGKFTCNIPGTYFFTYHVLMRGGDGTSMWADLCKNGQVRASAIAQNADQNYDYASNSVILHLDAGDEVFIKLDGGKAHGGNSNKYSTFSGFIIYSD
B2 was tested, and the binding result (SEC [3]) was “binds” and the “fold weaker binding than wild type” value [1] was about 9 fold.

B3: C1ql1_gC1q D210N (domain or fragment, mouse)
chain: B2 chain with N84D, D86N
B3: binds [1].

B4: C1ql1_gC1q D214N (domain or fragment, mouse)
chain: B2 chain with N84D, D90N
B4: binds [1].

B5: C1ql1_gC1q A209S (domain or fragment, mouse)
chain: B2 chain with N84D, A85S
B5: binds [1].

B6: full-length C1ql1, bacteria-expressed (without signal peptide) (natural protein, mouse, UniProt O88992 17-258, looked up)
chain: GPDGHYEMLGTCRMVCDPYPARGPGAGARSDGGDALSEQSGAPPPSTLVQGPQGKPGRTGKPGPPGPPGDRGPPGPVGPPGEKGEPGKPGPPGLPGSGGSGAISTATYTTVPRVAFYAGLKNPHEGYEVLKFDDVVTNLGNNYDAASGKFTCNIPGTYFFTYHVLMRGGDGTSMWADLCKNGQVRASAIAQDADQNYDYASNSVILHLDAGDEVFIKLDGGKAHGGNSNKYSTFSGFIIYSD
With B6 the “stoichiometry N” value (SEC [4]) was 6 and 3.
